IntAct's records for PubMed 31515488

What was measured:
dtx2_human DTX2 = dtx2_human DTX2 (UniProt Q86UW9)
rnf14_human RNF14 = rnf14_human RNF14 (UniProt Q9UBS8)
rn115_human RNF115 = rn115_human RNF115 (UniProt Q9Y4L5)
trim1_human MID2 = trim1_human MID2 (UniProt Q9UJV3)
otub1_human OTUB1 = otub1_human OTUB1 (UniProt Q96FW1)
ubql1_human UBQLN1 = ubql1_human UBQLN1 (UniProt Q9UMX0)
k1h1_human KRT31 = k1h1_human KRT31 (UniProt Q15323)
rgs20_human RGS20 = rgs20_human RGS20 (UniProt O76081)
gpix_human GP9 = gpix_human GP9 (UniProt P14770)
grn_human GRN = grn_human GRN (UniProt P28799)
trip6_human TRIP6 = trip6_human TRIP6 (UniProt Q15654)
naif1_human NAIF1 = naif1_human NAIF1 (UniProt Q69YI7)
cryaa_human CRYAA = cryaa_human CRYAA (UniProt P02489)
ei2ba_human EIF2B1 = ei2ba_human EIF2B1 (UniProt Q14232)
pygm_human PYGM = pygm_human PYGM (UniProt P11217)
TSC22D1 = TSC22D1 (UniProt Q15714)
gas7_human GAS7 = gas7_human GAS7 (UniProt O60861)
rpia_human RPIA = rpia_human RPIA (UniProt P49247)
vac14_human VAC14 = vac14_human VAC14 (UniProt Q08AM6)
pnma5_human PNMA5 = pnma5_human PNMA5 (UniProt Q96PV4)
tolip_human TOLLIP = tolip_human TOLLIP (UniProt Q9H0E2)
ncoa5_human NCOA5 = ncoa5_human NCOA5 (UniProt Q9HCD5)
gnmt_human GNMT = gnmt_human GNMT (UniProt Q14749)
mif_human MIF = mif_human MIF (UniProt P14174)
cdr2_human CDR2 = cdr2_human CDR2 (UniProt Q01850)
prps2_human PRPS2 = prps2_human PRPS2 (UniProt P11908)
actg_human ACTG1 = actg_human ACTG1 (UniProt P63261)
dnja3_human DNAJA3 = dnja3_human DNAJA3 (UniProt Q96EY1)
birc2_human BIRC2 = birc2_human BIRC2 (UniProt Q13490)
ndka_human NME1 = ndka_human NME1 (UniProt P15531)
dhb14_human HSD17B14 = dhb14_human HSD17B14 (UniProt Q9BPX1)
actb_human ACTB = actb_human ACTB (UniProt P60709)
kctd1_human KCTD1 = kctd1_human KCTD1 (UniProt Q719H9)
mbip1_human MBIP = mbip1_human MBIP (UniProt Q9NS73)
mtnb_human APIP = mtnb_human APIP (UniProt Q96GX9)
nud14_human NUDT14 = nud14_human NUDT14 (UniProt O95848)
lonf1_human LONRF1 = lonf1_human LONRF1 (UniProt Q17RB8)
ca050_human C1orf50 = ca050_human C1orf50 (UniProt Q9BV19)
edad_human EDARADD = edad_human EDARADD (UniProt Q8WWZ3)
CCDC102B = CCDC102B (UniProt Q68D86)
cdd_human CDA = cdd_human CDA (UniProt P32320)
pnma1_human PNMA1 = pnma1_human PNMA1 (UniProt Q8ND90)
frih_human FTH1 = frih_human FTH1 (UniProt P02794)
lztl1_human LZTFL1 = lztl1_human LZTFL1 (UniProt Q9NQ48)
thap1_human THAP1 = thap1_human THAP1 (UniProt Q9NVV9)
dctp1_human DCTPP1 = dctp1_human DCTPP1 (UniProt Q9H773)
sdcb1_human SDCBP = sdcb1_human SDCBP (UniProt O00560)
tri23_human TRIM23 = tri23_human TRIM23 (UniProt P36406)
prdc1_human PRTFDC1 = prdc1_human PRTFDC1 (UniProt Q9NRG1)

Measured: effect of a mutation on the interaction

Chain of FAD synthase (Homo sapiens), Q8NFF5 R228H (Q8NFF5 whole entry R228H): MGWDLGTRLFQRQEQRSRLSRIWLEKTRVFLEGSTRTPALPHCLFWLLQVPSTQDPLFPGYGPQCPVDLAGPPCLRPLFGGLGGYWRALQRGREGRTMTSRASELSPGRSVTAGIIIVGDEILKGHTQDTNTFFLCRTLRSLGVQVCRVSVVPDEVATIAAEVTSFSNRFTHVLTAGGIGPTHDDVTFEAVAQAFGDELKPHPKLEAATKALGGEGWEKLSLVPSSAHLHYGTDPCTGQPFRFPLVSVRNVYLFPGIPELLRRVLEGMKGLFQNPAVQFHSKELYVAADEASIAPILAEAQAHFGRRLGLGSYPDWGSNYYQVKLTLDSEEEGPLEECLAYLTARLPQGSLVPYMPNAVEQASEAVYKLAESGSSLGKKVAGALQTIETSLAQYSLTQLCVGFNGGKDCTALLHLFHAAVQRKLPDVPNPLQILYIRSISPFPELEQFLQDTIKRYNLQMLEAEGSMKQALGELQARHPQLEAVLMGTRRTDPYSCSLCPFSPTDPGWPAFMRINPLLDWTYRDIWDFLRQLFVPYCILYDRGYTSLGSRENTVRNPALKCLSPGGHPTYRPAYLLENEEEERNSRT
Chain of Ubiquitin-conjugating enzyme E2 D4 (Homo sapiens), Q9Y2X8 G27S (Q9Y2X8 whole entry G27S): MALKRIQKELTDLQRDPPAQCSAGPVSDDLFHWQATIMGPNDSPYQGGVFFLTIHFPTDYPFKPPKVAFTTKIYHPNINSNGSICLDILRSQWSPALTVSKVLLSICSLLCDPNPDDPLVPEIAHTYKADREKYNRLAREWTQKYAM
Chain of Homeobox protein Hox-A1 (Homo sapiens), P49639 S98R (P49639 whole entry S98R): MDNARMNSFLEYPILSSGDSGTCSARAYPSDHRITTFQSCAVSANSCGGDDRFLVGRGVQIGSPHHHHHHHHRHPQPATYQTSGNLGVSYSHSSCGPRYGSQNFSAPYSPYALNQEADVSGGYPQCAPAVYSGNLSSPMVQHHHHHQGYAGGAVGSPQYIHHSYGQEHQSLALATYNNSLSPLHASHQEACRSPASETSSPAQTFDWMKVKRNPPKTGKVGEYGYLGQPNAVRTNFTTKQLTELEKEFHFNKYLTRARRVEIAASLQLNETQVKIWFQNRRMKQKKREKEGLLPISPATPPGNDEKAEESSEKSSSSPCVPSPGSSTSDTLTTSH
Chain of Transcription factor SOX-14 (Homo sapiens), O95416 A107G (O95416 whole entry A107G): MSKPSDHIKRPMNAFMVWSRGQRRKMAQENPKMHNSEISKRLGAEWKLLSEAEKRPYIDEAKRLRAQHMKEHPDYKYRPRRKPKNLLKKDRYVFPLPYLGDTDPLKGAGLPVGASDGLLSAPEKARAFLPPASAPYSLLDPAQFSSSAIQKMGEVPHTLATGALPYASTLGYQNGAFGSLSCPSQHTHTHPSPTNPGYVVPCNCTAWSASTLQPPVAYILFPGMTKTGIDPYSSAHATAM
Chain of prps2_human PRPS2 (P11908 whole entry): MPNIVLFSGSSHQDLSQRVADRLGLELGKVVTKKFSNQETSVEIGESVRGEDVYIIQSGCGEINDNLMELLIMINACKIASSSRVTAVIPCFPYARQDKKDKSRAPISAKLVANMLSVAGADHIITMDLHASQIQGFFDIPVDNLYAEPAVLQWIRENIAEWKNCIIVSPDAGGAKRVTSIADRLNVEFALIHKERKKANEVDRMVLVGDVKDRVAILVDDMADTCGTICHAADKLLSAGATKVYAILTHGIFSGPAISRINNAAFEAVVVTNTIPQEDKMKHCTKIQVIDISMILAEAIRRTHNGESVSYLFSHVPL
Chain of vac14_human VAC14 (Q08AM6 whole entry): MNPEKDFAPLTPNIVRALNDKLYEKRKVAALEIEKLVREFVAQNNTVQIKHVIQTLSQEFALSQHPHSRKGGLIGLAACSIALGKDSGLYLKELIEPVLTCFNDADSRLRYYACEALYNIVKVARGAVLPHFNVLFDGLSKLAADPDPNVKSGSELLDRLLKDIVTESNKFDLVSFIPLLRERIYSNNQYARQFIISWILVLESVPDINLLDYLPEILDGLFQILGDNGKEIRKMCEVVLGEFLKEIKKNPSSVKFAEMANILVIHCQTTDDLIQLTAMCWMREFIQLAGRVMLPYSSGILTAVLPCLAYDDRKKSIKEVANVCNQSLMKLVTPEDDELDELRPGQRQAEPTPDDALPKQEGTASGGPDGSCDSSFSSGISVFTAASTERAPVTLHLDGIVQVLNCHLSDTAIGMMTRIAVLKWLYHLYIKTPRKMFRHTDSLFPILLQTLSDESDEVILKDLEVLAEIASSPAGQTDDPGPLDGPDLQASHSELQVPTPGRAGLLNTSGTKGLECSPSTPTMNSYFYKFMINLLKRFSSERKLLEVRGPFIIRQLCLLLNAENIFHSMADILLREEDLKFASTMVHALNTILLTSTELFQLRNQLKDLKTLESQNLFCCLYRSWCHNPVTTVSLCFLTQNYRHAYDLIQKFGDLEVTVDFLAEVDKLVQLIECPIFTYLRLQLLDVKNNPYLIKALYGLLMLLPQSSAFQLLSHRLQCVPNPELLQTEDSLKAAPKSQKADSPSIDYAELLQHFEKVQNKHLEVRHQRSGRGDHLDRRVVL
Chain of ca050_human C1orf50 (Q9BV19 whole entry): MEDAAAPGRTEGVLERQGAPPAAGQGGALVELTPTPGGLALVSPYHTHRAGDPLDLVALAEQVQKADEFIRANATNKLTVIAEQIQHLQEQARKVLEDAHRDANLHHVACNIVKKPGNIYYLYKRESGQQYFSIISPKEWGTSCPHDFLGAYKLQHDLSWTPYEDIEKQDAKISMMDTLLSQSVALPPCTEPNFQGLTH
Chain of lztl1_human LZTFL1 (Q9NQ48 whole entry): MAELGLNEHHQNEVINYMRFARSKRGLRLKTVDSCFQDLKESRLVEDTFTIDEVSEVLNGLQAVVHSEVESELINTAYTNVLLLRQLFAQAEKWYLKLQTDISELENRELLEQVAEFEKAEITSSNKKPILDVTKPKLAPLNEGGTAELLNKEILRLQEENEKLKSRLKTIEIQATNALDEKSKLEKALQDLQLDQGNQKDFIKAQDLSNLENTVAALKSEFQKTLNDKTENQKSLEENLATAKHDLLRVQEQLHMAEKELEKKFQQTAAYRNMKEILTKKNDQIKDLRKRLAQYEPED
Chain of pnma1_human PNMA1 (Q8ND90 whole entry): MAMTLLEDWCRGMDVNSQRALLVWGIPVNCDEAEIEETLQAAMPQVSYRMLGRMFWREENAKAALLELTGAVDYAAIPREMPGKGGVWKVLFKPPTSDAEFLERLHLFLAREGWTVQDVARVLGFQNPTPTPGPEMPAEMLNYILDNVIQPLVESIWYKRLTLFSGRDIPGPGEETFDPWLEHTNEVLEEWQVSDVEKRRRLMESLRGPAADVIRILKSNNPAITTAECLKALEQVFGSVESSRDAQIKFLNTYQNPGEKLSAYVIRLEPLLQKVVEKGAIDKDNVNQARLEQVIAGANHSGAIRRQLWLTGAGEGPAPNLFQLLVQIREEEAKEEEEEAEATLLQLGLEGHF
Chain of naif1_human NAIF1 (Q69YI7 whole entry): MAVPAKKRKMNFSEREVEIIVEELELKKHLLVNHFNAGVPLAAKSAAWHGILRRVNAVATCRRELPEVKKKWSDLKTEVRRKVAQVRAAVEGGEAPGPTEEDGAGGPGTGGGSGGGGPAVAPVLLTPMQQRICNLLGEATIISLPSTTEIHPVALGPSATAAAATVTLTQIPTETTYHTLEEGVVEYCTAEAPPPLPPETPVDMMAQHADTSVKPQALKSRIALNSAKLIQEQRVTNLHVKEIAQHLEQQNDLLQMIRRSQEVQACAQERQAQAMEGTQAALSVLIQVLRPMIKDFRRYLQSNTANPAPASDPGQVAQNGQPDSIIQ
Chain of dtx2_human DTX2 (Q86UW9 whole entry): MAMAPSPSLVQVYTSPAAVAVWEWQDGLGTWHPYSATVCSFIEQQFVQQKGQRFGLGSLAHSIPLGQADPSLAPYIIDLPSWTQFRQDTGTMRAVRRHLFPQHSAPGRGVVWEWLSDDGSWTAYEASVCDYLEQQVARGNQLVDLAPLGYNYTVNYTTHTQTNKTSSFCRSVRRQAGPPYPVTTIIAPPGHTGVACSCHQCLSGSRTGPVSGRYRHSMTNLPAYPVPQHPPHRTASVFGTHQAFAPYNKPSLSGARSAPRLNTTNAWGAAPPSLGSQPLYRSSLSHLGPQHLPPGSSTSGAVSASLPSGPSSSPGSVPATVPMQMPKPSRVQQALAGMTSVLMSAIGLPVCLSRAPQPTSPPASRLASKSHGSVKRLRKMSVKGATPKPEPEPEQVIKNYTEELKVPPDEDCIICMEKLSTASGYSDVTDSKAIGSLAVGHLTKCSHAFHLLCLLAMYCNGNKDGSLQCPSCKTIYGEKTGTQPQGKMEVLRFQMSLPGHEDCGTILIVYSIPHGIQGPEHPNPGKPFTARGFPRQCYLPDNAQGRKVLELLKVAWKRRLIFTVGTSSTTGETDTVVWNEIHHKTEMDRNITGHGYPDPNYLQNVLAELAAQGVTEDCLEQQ
Chain of rnf14_human RNF14 (Q9UBS8 whole entry): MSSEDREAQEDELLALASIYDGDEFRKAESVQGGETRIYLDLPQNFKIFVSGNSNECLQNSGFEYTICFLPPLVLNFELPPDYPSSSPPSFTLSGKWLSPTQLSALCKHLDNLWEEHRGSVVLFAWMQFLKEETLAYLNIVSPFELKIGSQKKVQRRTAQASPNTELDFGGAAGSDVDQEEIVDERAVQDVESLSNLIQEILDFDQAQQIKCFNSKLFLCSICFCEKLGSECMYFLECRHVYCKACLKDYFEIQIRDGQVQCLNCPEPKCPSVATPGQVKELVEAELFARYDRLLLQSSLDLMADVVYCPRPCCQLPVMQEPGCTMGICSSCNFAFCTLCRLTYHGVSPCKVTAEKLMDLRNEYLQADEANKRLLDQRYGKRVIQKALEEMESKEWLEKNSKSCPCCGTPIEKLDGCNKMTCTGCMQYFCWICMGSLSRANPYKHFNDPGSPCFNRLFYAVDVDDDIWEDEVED
Chain of edad_human EDARADD (Q8WWZ3 whole entry): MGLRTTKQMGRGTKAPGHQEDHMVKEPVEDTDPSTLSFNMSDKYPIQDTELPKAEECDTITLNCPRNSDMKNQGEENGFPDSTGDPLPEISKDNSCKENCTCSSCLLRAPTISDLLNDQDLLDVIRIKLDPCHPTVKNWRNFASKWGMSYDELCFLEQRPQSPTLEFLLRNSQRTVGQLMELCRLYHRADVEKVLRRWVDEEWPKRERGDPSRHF

Ubiquitin-conjugating enzyme E2 D4 (Homo sapiens), Q9Y2X8 G27S
with no effect: dtx2_human DTX2 | rnf14_human RNF14 | rn115_human RNF115 | trim1_human MID2 | otub1_human OTUB1

Thioredoxin domain-containing protein 12 (Homo sapiens), O95881 T80M
with no effect: ubql1_human UBQLN1

Homeobox protein Hox-A1 (Homo sapiens), P49639 S98R
with no effect: k1h1_human KRT31 | rgs20_human RGS20 | gpix_human GP9 | grn_human GRN | trip6_human TRIP6

Transcription factor SOX-14 (Homo sapiens), O95416 A107G
with no effect: naif1_human NAIF1

Protein N-terminal glutamine amidohydrolase (Homo sapiens), Q96HA8 A52G
not listed: dtx2_human DTX2 | rnf14_human RNF14 | rn115_human RNF115 | trim1_human MID2 | otub1_human OTUB1 | ubql1_human UBQLN1 | k1h1_human KRT31 | rgs20_human RGS20 | gpix_human GP9 | grn_human GRN | trip6_human TRIP6 | naif1_human NAIF1 | sdcb1_human SDCBP | tri23_human TRIM23 | prdc1_human PRTFDC1
with no effect: all other assays above

FAD synthase (Homo sapiens), Q8NFF5 R228H
with no effect: sdcb1_human SDCBP | tri23_human TRIM23 | prdc1_human PRTFDC1
